# Experimental data: the supplement of paper PMC10126150
# ± gives the standard deviation of the averaged measurements.
# Test system: ATP
# Test: switch fluorescence ratio, 500 uM ATP over buffer (Cy3 cluster intensity, sum of 5 cycles each) (fold (ratio)); higher = stronger signal-on switching upon ATP binding; sequences stand for … in TCGTCGGCAGCGTCAGATGTGTATAAGAGACAGTTTTTTTTTTTTTTTTTTTTTTTTT…TC
# Conditions: aptamer strand: ATP DNA aptamer (quencher-CACCTGGGGGAGTATTGCGGAGGAAGG + anchor), 100 nM annealed; ATP concentration: 500 uM
# Outline: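 After annealing to 100 nM quencher-labelled ATP aptamer, Cy3-labelled switching-strand clusters on a modified Illumina MiSeq flow-cell were imaged in selection buffer. A second image followed after 15 min with 500 uM ATP at 22 °C, and five such buffer/ATP cycles were done, each separated by NaOH stripping and re-annealing. The fluorescence ratio, averaged per switch-domain sequence, is summed target-cycle over summed buffer-cycle Cy3 intensity per cluster, with clusters outside 100-1000 RFU excluded.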
# 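Note: ATP exposure 15 min at 22 °C before imaging.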
row,Sequence,switch fluorescence ratio
1,TCACGCCGGG,1.04 ± 0.019
2,TCACGGATGT,1.04 ± 0.012
3,TCACGGCTGG,0.971 ± 0.029
4,TCACGGGAAT,1.02 ± 0.055
5,TCACGGGGGT,1.17 ± 0.23
6,TCACGTTATG,1.11 ± 0.026
7,TCACTAGATC,0.998 ± 0.021
8,TCACTGGGTG,1.23 ± 0.035
9,TCACTGTTGT,0.993 ± 0.032
10,TCACTTATAA,1.02 ± 0.018
11,TCACTTATGG,1.03 ± 0.033
12,TCAGAAAGGG,1.021 ± 0.0059
13,TCAGAAGCGG,1.3 ± 0.1
14,TCAGAAGGCG,0.981 ± 0.015
15,TCAGAAGGGT,0.994 ± 0.03
16,TCAGAATCTA,1 ± 0.015
17,TCAGACATCG,1.01 ± 0.035
18,TCAGACTAGA,1.028 ± 0.0045
19,TCAGATGGGG,1.03 ± 0.021
20,TCAGATTAGT,0.968 ± 0.016
21,TCAGCATGTA,1.04 ± 0.019
22,TCAGCCGGGA,1.08 ± 0.024

row,Sequence,switch fluorescence ratio
1,TCAGCCGTTT,1.05 ± 0.054
2,TCAGCTCCGT,1.08 ± 0.025
3,TCAGGAAAAG,0.989 ± 0.019
4,TCAGGAAAGG,1.003 ± 0.0027
5,TCAGGCGGGC,1.015 ± 0.0058
6,TCAGGCGTTG,0.971 ± 0.027
7,TCAGGCTGGG,1.02 ± 0.016
8,TCAGGGCTAA,1.02 ± 0.062
9,TCAGGGGATC,1.01 ± 0.017
10,TCAGGGGCGA,1.041 ± 0.0078
11,TCAGGGGCGG,1.04 ± 0.096
12,TCAGGGGGGG,1.02 ± 0.022
13,TCAGGGGGTT,1.05 ± 0.037
14,TCAGGGGTCT,0.994 ± 0.011
15,TCAGGGGTTG,1.09 ± 0.17
16,TCAGGGTGCC,1.017 ± 0.0094
17,TCAGGTACAT,1.07 ± 0.014
18,TCAGGTCGCA,0.9894 ± 0.0054
19,TCAGGTTTGT,1.28 ± 0.34
20,TCAGGTTTTT,1.13 ± 0.22
21,TCAGTAACGC,1.05 ± 0.013
22,TCAGTAGATC,1.02 ± 0.044

row,Sequence,switch fluorescence ratio
1,TCAGTGGGTT,0.9968 ± 0.0089
2,TCAGTGTCCG,0.966 ± 0.038
3,TCAGTTGTAC,1.08 ± 0.011
4,TCAGTTGTCA,0.981 ± 0.017
5,TCAGTTTATG,0.961 ± 0.011
6,TCATAAAAGC,0.99 ± 0.027
7,TCATAATAGC,0.977 ± 0.028
8,TCATAATTGG,1.005 ± 0.0045
9,TCATACTTAA,1.04 ± 0.1
10,TCATAGATTT,0.988 ± 0.013
11,TCATAGCGGT,1.095 ± 0.0014
12,TCATAGGTGG,1 ± 0.034
13,TCATAGTTCA,1.03 ± 0.012
14,TCATATGAGT,1 ± 0.051
15,TCATATTAAG,0.9911 ± 0.0028
16,TCATCCCTAT,1.1 ± 0.15
17,TCATCGCTTT,1.08 ± 0.021
18,TCATCTTGGC,1.02 ± 0.096
19,TCATGAATTT,0.9885 ± 0.0089
20,TCATGACTTT,1.012 ± 0.0038
21,TCATGATTTT,0.9992 ± 0.0048
22,TCATGCATGT,1.035 ± 0.01

row,Sequence,switch fluorescence ratio
1,TCATGCCCTT,1.02 ± 0.033
2,TCATGCTGGT,1.01 ± 0.024
3,TCATGGAAGG,1.01 ± 0.026
4,TCATGGAGAT,0.965 ± 0.033
5,TCATGGCCAG,1.04 ± 0.078
6,TCATGGGCTT,1.01 ± 0.0059
7,TCATGGGGCT,1.02 ± 0.019
8,TCATGGTATT,1.01 ± 0.011
9,TCATGGTGGG,1 ± 0.025
10,TCATGGTTGG,0.997 ± 0.028
11,TCATGGTTTT,0.977 ± 0.016
12,TCATGTGGTA,0.9915 ± 0.0093
13,TCATGTGTTG,0.992 ± 0.045
14,TCATTAAGGC,1.01 ± 0.015
15,TCATTAAGGG,0.99105 ± 0.00093
16,TCATTATAAT,1.006 ± 0.0062
17,TCATTATTAA,1.01 ± 0.027
18,TCATTCGGAG,1.02 ± 0.014
19,TCATTCGTTT,1.01 ± 0.016
